Data reported in US20240417469A1.

Tests used:
[1] = target: recombinant CD3D&E protein (human CD3-his tag) (human) (UniProt P04234); assay: SPR Biacore, Ab captured on Protein A
[2] = target: human CD3 on cells (human PBMC; Jurkat TCR/CD3 NFAT reporter cells) (human) (UniProt P07766); assay: FACS on human PBMC, PE anti-human IgG Fc secondary, geometric mean fluorescence
Chain of human CD3 on cells (human PBMC; Jurkat TCR/CD3 NFAT reporter cells) (human) (P07766 23-207, chain 1 of 3): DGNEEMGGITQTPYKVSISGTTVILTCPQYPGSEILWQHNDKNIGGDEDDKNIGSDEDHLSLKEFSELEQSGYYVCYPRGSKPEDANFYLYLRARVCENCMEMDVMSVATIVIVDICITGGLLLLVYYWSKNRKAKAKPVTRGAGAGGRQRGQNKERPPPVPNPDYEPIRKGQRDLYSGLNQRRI
Chain of human CD3 on cells (human PBMC; Jurkat TCR/CD3 NFAT reporter cells) (human) (P04234 22-171, chain 2 of 3, further chain): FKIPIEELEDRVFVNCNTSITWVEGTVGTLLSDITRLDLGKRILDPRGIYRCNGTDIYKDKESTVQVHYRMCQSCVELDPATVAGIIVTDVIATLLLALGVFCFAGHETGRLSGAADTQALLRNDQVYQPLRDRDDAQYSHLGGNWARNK
Chain of human CD3 on cells (human PBMC; Jurkat TCR/CD3 NFAT reporter cells) (human) (P09693 23-182, chain 3 of 3, further chain): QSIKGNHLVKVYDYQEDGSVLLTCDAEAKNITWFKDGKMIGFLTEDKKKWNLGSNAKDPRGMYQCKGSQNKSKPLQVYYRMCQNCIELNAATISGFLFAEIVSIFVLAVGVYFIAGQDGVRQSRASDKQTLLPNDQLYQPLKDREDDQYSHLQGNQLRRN

Chain of recombinant CD3D&E protein (human CD3-his tag) (human) (P04234 22-105 limits assumed, chain 1 of 2): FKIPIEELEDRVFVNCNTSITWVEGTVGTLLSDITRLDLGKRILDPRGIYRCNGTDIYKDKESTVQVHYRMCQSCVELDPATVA
Chain of recombinant CD3D&E protein (human CD3-his tag) (human) (P07766 23-126 limits assumed, chain 2 of 2, further chain): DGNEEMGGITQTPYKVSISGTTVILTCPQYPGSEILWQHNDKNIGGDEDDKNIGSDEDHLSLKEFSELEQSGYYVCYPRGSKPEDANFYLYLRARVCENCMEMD

## OKT3 (antibody)
[1]
  Kd: 3.7 nM
  koff: 0.00272 s⁻¹
  kon: 735000 M⁻¹ s⁻¹
[2]
  EC50 (read off the curve): 0.04 nM
